B1: library; numbered along this chain (parent)
chain: MAAAAAAAAEQQSSNGPVKKSMREKAVERRSVNKEHNSNFKAGYIPIDEDRLHKTGLRGRKGNLAICVIILLFILAVINLIITLVIWAVIRIGPNGCDSMEFHESGLLRFKQVSDMGVIHPLYKSTVGGRRNENLVITGNNQPIVFQQGTTKLSVENNKTSITSDIGMQFFDPRTQNILFSTDYETHEFHLPSGVKSLNVQKASTERITSNATSDLNIKVDGRAIVRGNEGVFIMGKTIEFHMGGNMELKAENSIILNGSVMVSTTRLPSSSSGDQLGSGDWVRYKLCMCADGTLFKVQVTSQNMGCQISDNPCGNTH

Variants of: B1
Test: SGCB cell-surface expression functional score (HA stain, bin4 vs bin1, normalised to synonymous) (log10 ratio); higher = more cell-surface SGCB (functional)
Method: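 Deep mutational scan of full-length human SGCB (YFP-SGCB-HA, NNN codon sublibraries A-F) delivered by lentivirus at low MOI into ADG-HEK293 cells stably expressing SGCA, SGCD and SGCG. YFP-positive cells were stained for surface HA on unpermeabilized cells and FACS-sorted into bins. The functional score is log10(frequency in high bin 4 / frequency in low bin 1), normalised per chunk so that synonymous variants have mean 0 and SD 0.5. Scores are the median over codons and over duplicate biological replicates; scores below -0.5 are called non-functional. Scale: negative means deleterious.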

Variant | SGCB cell-surface expression functional score (log10)
S14T | -0.01
S14L | 0.1
S14V | 0.21
S14E | 0.27
S14K | 0.31
S14W | -0.06
S14R | 0.04
S14Q | 0.46
S14A | 0.14
S14F | 0.19
S14N | 0.61
S14Y | -0.15
S14G | 0.43
S14P | 0.22
S14M | 0.08
S14D | 0.3
S14I | 0.03
S14H | 0.09
S14C | 0.04
S13W | 0.8
S13L | 0.02
S13F | -0.45
S13G | -0.08
S13M | 0.29

Variant | SGCB cell-surface expression functional score (log10)
S13Q | 0.29
S13Y | 0.05
S13R | -0.07
S13E | 0.25
S13P | 0.2
S13D | 0.05
S13A | 0.2
S13H | 0.13
S13C | -0.36
S13V | 0.2
S13T | -0.13
S13I | -0.1
S13N | 0.08
S13K | 0.46
Q12L | 0.03
Q12K | 0.02
Q12R | 0.29
Q12S | 0.04
Q12N | 0.01
Q12T | -0.35
Q12M | -0.09
Q12Y | -0.05
Q12I | -0.43
Q12H | 0.03

Variant | SGCB cell-surface expression functional score (log10)
Q12W | -0.29
Q12V | -0.06
Q12P | 0.06
P17N | 0.1
P17F | 0.2
P17S | 0.12
P17M | -0.04
P17E | 0.21
P17Y | 0.31
P17K | 0.13
P17D | 0.27
P17R | -0.12
P17H | 0.1
P17T | 0.31
P17G | -0.18
P17L | -0.13
P17V | -0.13
P17Q | -0.31
P17C | 0.46
P17W | -0.2
P17A | 0.2
P17I | -0.28
S21C | 0.5
S21A | 0.2

Variant | SGCB cell-surface expression functional score (log10)
G16S | 0.37
G16W | 0.23
G16I | -0.02
G16M | 0.4
G16Q | 0.97
G16R | 0.04
G16H | 0.08
G16T | -0.27
G16A | -0.31
G16D | 0.57
G16P | 0.37
G16V | 0.38
G16E | 0.38
G16N | 0.14
G16Y | 0.23
G16L | -0.08
G16F | 0.52
G16K | 0.11
G16C | -0.06
N15I | 0.04
N15E | 0.33
N15F | 0.28
N15G | 0.04
N15V | 0.31

Variant | SGCB cell-surface expression functional score (log10)
N15H | -0.07
N15P | 0.34
N15C | 0.19
N15S | -0.02
N15W | 0.29
N15M | 0.35
N15A | 0.45
N15L | 0.32
N15D | -0.15
N15Q | 0.32
N15R | 0.19
N15K | 0.05
N15Y | 0.13
N15T | 0.14
K20S | 0.14
K20W | 0.05
K20G | -0.09
K20D | 0.22
K20T | 0
K20I | 0.09
K20A | 0.08
K20P | 0.39
K20H | -0.13
K20Q | 0.49

Variant | SGCB cell-surface expression functional score (log10)
K20V | 0.32
K20E | 0.06
K20Y | -0.59
K20F | 0.1
K20R | 0.2
K20M | 0.39
K20N | -0.16
K20C | 0.12
K20L | 0.12
V18G | 0.04
V18I | 0.24
V18S | 0.21
V18Q | 0.17
V18L | -0.01
V18M | -0.08
V18A | 0.26
V18C | -0.07
V18D | 0.09
V18K | 0.16
V18E | 0.13
V18W | 0.55
V18Y | 0.14
V18P | 0.29
V18H | -0.54

Variant | SGCB cell-surface expression functional score (log10)
V18N | -0.03
V18T | 0.24
V18F | 0
V18R | 0.23
K19E | 0.33
K19P | 0.42
K19L | 0.3
K19C | -0.11
K19F | 0.01
K19N | 0.14
K19M | 0.02
K19I | 0.14
K19H | 0.21
K19D | 0.06
K19A | 0.35
K19V | -0.01
K19Q | -0.12
K19R | 0.18
K19T | -0.07
K19S | 0.21
K19W | 0.32
K19Y | 0.34
K19G | 0.02
